# Data reported in doi:10.1101/2023.10.17.562808.
# Tests used:
# Conditions in all cases: none besides dye labels, binding temperature not given
# PARP2 (mouse) [1] = experiment: EMSA
# PARP2 (mouse) [2] = experiment: EMSA; remark: listed apart in the source
# PARP2 (mouse) [3] = experiment: spFRET
substance,measurement,setting,value
"NP nucleosome (603, 187 bp)",K half,PARP2 (mouse) [1],40 nM
same,K half,PARP2 (mouse) [2],40 nM
same,K half,PARP2 (mouse) [3],19 nM
